# Measurements: publication PMC6764942, “TFF3 interacts with LINGO2 to regulate EGFR activation for protection against colitis and gastrointestinal helminths” (Nature Communications, 2019)
# Where no end group is shown, it is not given here.
# T1: LINGO2-GFP on HEK293 transfectants (mouse, UniProt Q3URE9 28-606)
# T1 construct: LINGO2, mouse, from pCMV3-mLINGO2-GFP; also called GFP-LINGO2; pCMV3-mLINGO2-GFP; source: HEK293, transfected, on cells
# T1 sequence (looked up): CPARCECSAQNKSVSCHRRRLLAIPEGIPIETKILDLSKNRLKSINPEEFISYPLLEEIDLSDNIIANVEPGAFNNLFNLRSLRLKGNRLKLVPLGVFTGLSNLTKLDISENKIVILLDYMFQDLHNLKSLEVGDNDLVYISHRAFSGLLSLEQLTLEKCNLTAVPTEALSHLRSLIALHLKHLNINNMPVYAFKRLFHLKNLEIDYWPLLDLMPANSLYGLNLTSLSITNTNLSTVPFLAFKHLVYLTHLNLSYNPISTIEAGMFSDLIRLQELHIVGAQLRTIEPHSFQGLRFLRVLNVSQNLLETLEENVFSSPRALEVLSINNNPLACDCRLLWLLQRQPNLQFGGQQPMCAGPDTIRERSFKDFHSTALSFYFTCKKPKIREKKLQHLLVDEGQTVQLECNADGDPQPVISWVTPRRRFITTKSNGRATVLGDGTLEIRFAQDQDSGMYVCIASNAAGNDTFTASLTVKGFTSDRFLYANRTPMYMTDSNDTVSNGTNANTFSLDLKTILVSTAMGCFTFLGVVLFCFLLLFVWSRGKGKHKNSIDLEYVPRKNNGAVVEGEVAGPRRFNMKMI
# Target: T1, LINGO2-GFP on HEK293 transfectants
# Assay: flow cytometry on cells; HEK293 transfected with GFP-labeled receptors, 24 h later incubated with PBS or 3 ug Alexa Fluor 647 labeled soluble ligand for 16 h at 4 C; double positive (GFP and AF-647) cells counted
# Conditions: one partner purified
binder,measurement,value
"TFF3-647 (murine recombinant TFF3 labeled with Alexa Fluor 647) (ligand, mouse, UniProt Q62395 23-81, looked up, ends and bridges not checked; also: Alexa Fluor 647 label, site not given here, Trefoil factor 3, mouse, recombinant (Peprotech); A commercial recombinant TFF3 is probably the mature protein (surmise); source: bought: Peprotech) ADYVGLSPSQCMVPANVRVDCGYPSVTSEQCNNRGCCFDSSIPNVPWCFKPLQETECTF",fold increase in double-positive cells compared to PBS or IL-2-647,12 fold
